The target in assay [1] is SARS-CoV-2 RBD titrated over immobilised Fabs (construct not stated) (SARS-CoV-2 (ancestral, Wuhan-Hu-1 …, UniProt P0DTC2)). Put plainly: BLI. Conditions: both partners purified.
For assay [2], the target named is T1, full-length SARS-CoV spike expressed on cells (SARS-CoV, strain , UniProt P59594).
T1 construct: source: HEK293T, transiently transfected, on cells
In words: flow cytometry on cells. The note with it: one partner purified.

The target in assay [3] is T2, SARS-CoV-2 spike RBD (S-RBD), hFc tag removed by thrombin digestion, biotinylated (SARS-CoV-2, UniProt P0DTC2). In words: ELISA. The note with it: both partners purified.
Assay [4] addresses T2, SARS-CoV-2 spike RBD (S-RBD), hFc tag …. In words: BLI. Conditions: both partners purified.

In general, Kd refers to the equilibrium constant for the complex coming apart. Higher therefore signals a looser complex. Broadly, the IC50 is the concentration needed to halve the response being measured. A lower IC50 goes with greater potency.

B1: S-E6 Fab (Fab, V domains shown)
VH: QVTLRESGPGLVKPSETLSLTCAVSGGSLSSVNYYWSWIRQHPGKGLEWIGYIYYSGSTNYNPSLKSRVTMSLDTSKNQFSLKLSSVTAADTAVYYCATPGAIMGALHIWGQGTLVTVSS
VL: QAVLTQPSSASSTPGQRVIISCSGSSSNIGSNTVSWYQQVPGAAPKLLIYFDYRRPSGVPDRFSGTRSGTSASLGISGLQSEDEADYYCAAWDDSLSAWVFGRGTKLTVL
B1 registered a Kd in assay [1] of 11.4 nM.

B2: S-E6 full-length human IgG4e1(S228P) antibody (antibody, V domains shown)
VH: B1 VH
VL: B1 VL
notes: also called S-E6 IgG; source: HEK293F, secreted; clarified culture supernatant, and purified (Mabselect)
For the molecule B2, in assay [2], the binding result was “no binding”.

B3: S-B8 Fab (Fab, V domains shown)
VH: QVQLVQSGGGLIQPGGSLRLSCAASGFTVSLSHMNWVRQAPGKGLEWVSITYGDGNSDYADSVKGRFTISRDNSKNTLYLQMNSLRAEDTAVYYCAREYYYGMDVWGQGTTVTVSS
VL: not shown
In turn, B3 returned a Kd in assay [1] of 15.4 nM.

B4: S-B8 full-length human IgG4e1(S228P) antibody (antibody, V domains shown)
VH: B3 VH
VL: not shown
notes: also called S-B8 IgG; source: HEK293F, secreted; clarified culture supernatant, and purified (Mabselect)
Molecule B4 showed an IC50 in assay [3] of 12.9 nM. The molecule further registered an equilibrium dissociation constant (Kd) in assay [4] of 7.79 nM.

(Values after paper PMC8646600 (Advanced Science, 2021).)
